Common to all, as to experiment: SEC
Background: Size exclusion chromatography separates by hydrodynamic size, large species first.

In assay [1] the target is Δ10-ClpP (Escherichia coli).
Assay [2] deals with Δ4-ClpP (Escherichia coli).
Assay [3] concerns the target Δ6-ClpP (Escherichia coli).
In assay [4] the target is Δ14-ClpP (Escherichia coli).
Assay [5] has as its target Δ17-ClpP (Escherichia coli).

The substance Δ10-ClpP (domain or fragment) yielded a stoichiometry N in assay [1] of 14. Take Δ4-ClpP (domain or fragment): the stoichiometry N in assay [2] worked out at 14. Δ6-ClpP (domain or fragment) came in with a stoichiometry N in assay [3] of 14.

Consider Δ14-ClpP (domain or fragment), for which the stoichiometry N in assay [4] worked out at 14. On to Δ17-ClpP (domain or fragment), for which, in assay [5], the stoichiometry N was 14.

The stoichiometry N is the number of molecules, sites or subunits per partner or assembly.

The values above are taken from publication PMC3433037.
